Source: patent US20230312744A1, “Modulatory Substance of Tumor Immune Microenvironment, and Preventive, Diagnostic and/or Therapeutic Utilization of the Same” (The University Of Tokyo, priority 2020, published 2023)

System: PMN-MDSCs in the TIME
Assay: Flow cytometry of tumor-infiltrating cells from SL4 tumors (PMN-MDSCs in CD45+ cells)
Type: in vivo
Details: 55F3 200 μg/mouse i.p., Day 13 after transplantation, ratio of PMN-MDSCs to CD45+ cells, vs control IgG
Experimental: In FIG. 13(a), SL4 cells (1×10^5 cells) were subcutaneously transplanted into C57BL/6 mice. The monoclonal antibody (55F3) (n=5) reacting against TCTP or control IgG (n=6) was intraperitoneally administered to the mice, every other day from one day after the transplantation (200 μg/mouse). The tumor volume was measured over time. In FIG. 13(b), on Day 13 after the transplantation, single cell suspensions were prepared from tumors, and were then subjected to a flow cytometry analysis (n=5). […] In FIG. 13(c), SL4 cells (1×10^5 cells) were subcutaneously transplanted into C57BL/6 mice (n=6). After the transplantation, DHA (50 mg/kg) was intraperitoneally […] into the mice every day. The tumor volume was measured over time. […] The tumor volume was measured over time. […] In FIG. 13(f), the amount of TCTP in sera derived from healthy subjects (people who are not affected with cancer) (n=5) and colorectal cancer patients (n=14) was quantified by immunoblotting. […] In FIG. 13 (g), (right view) the relative staining intensity by the anti-TCTP antibody was semi-quantified, and the staining intensity of the colorectal cancer tissues was compared with the staining intensity of the normal large intestinal tissues (n=45). […]
Tumor-infiltrating cells were recovered after subcutaneous transplantation of a tumor into mice, and were then analyzed by flow cytometry. […]

B1: 55F3: Mouse monoclonal antibody against human TCTP peptide SEQ ID NO: 25; CDRs SEQ ID NO: 1-6, VH SEQ ID NO: 19, VL SEQ ID NO: 22 (antibody, listed as Mus musculus)
VH: MRVLILLWLFTAFPGILSDVQLQESGPGLVKPSQSLSLTCTATGYSIASDYAWNWIRQFPGNKLEWMGYINYSGSTGYNPSLKSRISITRDTSKNQFFLQLNSVTTEDTATYYCARFEAGYWGQGTTLTVSSAKTTPPSVYPLAPGSAAQTNSMVTLGCLVKGYFPEPVT
VL: MDMRTPAQFLGILLLWFPGIKCDIKMTQSPSSMSASLGERVTITCKASQDINRYLSWFQQKPGKSPKTLIYRANRLVDGVPSRFSGSGSGQDYSLTISSLEYGDMGIYYCLQYNEFPLTFGAGTKLELKRADAAPTVSIFPPSSEQLTSGGASVVCFLN
  amount of PMN-MDSCs in the TIME: decreased
